Source: article PMC5472308, “Characterization of the regulation of a plant polysaccharide utilization operon and its role in biofilm formation in Bacillus subtilis” (PLoS ONE, 2017)

Target: His6-GanR (Bacillus subtilis 3610) (UniProt O07008)
Test: EMSA
Details: 10 mM Tris-HCl (pH not stated), 50 mM NaCl, 1 mM EDTA, 5% glycerol, 1 mM DTT, 10 ug/ml BSA, on ice 20 min; Cy3 probes with poly-dIdC, gel 0.5X TBE at 4 C

Chain of His6-GanR (Bacillus subtilis 3610) (O07008 whole entry): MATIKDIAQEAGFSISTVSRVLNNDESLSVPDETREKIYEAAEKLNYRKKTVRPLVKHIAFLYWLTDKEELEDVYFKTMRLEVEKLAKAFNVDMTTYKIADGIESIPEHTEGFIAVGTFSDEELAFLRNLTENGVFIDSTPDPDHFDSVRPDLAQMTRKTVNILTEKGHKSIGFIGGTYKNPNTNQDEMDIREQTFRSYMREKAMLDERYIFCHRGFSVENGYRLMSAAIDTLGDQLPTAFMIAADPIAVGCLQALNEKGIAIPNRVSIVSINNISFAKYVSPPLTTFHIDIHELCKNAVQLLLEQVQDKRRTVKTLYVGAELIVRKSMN

GTACGAATTCCCGCGCTGTATTCCGGCTTGAGAACAGCTTTTGAAAAGTAAGCTGTTTGGGAAAGTTAAATAATCTTTAATTCGAGATGTTTTACTTGAAAGTAAATTTCTTTGTCTCTATAATAAAGTCTAAGAGAGACAGAATAATCATTATGCATCTGTATGATAATAATTGATGTGTGATGGATCCGTAC (double strand) [PyvaB (yvaB promoter)]
binding: no binding
